Patent publication US20260209316A1 (US Dept. of Health and Human Services, published 2026)
Where a chain is given by its changes, count along the chain named. Where two headings read alike, the source gives them in different places.

B1: antibody 191L (antibody, V domains shown)
VH: EVQLVESGGGLVQPGGSLRLSCAASGFTFSSYGIHWVRQAPGKGLEWVAIISYDGNKKFHADSVKDRFTISRDNSKNMLYLQMNNLKLEDTAVYYCARAYDSGYFAGSVFYYWGQGVLVTVSS
VL: EVVFTQPHSVSGSPGQTVTISCTRSSGSIDSEYVQWYQQRPGNAPTTVIYKDNQRPSGVPDRFSGSIDSSSNSASLAISGLKSEDEADYYCQSADGNYHPVFGEGTRLTVL
B2: antibody 231L (antibody, V domains shown)
VH: EVQLVESGGGLVQPGGSLRLSCAASAFTFDDYAMHWVRQAPGKGLEWVSGITWSGLSTYYADSVKGRFTISRDNAKNSLYLQMNSLRVEDTALYYCAKSGNNSPFSGLDSWGQGAVVTVSS
VL: QSVLTQPPSVSGAPGQRVTVSCTGSSSNIGAGSYVQWYQQLPGTAPKLLIYENNKRPSGVSDRFSGSKSGTSASLTITGLQSEDEADYYCQSYDSSLNAYIFGAGTRLTVL
B3: antibody 578S (antibody, V domains shown)
VH: EVQLVESGGGVVQPGRSLRLSCAASGFTFSSYELHWVRQAPGKGLEWVAVISYDGSSKYYADSLKGRFTISRDNSKNTLSLQMNSLRAEDTAMYYCVRQSEAYCSDGRCDWRRALDIWGQGTMVTVSP
VL: DIQMTQSPSSLSASVGDRVTITCQASQDIKNYLNWYQQKPGKAPKLLIYDVSKLETGVPSRFSGSGSGTDFSFTISSLQPEDIATYYCQQYDNLPSYTFGQGTKLEIK
B4: antibody 203S (antibody, V domains shown)
VH: QVQLVQSGAEVKKPGSSVKVSCKASGGTFSSYAISWVRQAPGQGLEWLGRILPALGLANYAQKYQDRVKITADKSTSTAYMELSRLGSEDTAVYYCARDRWVGAARRGQYFDYWGQGTQVTVSS
VL: DIQMTQSPATLSASVGDRVTITCRASQSIGTWLAWYQQKPGKAPKLLIYDASSLESGVPPRFSGSGSETEFTLTISSLQPDDFATYYCHQYKSYSYTFGQGTKLEIK
B5: antibody 315L (antibody, V domains shown)
VH: QVQLQESGPGLVKPSETLSLTCTVSGGSITGNYWTWVRQPPGKGLQYIGRFDAGGKTYYNPPLKSRVSILGDKSKNQVSLNLTSVTVADTGVYYCAREQWGQLLSGSFDVWGRGVLVTVSS
VL: SYELTQPPSVSVSPGQTARITCSGDALPDYYAHWYQQKSGQAPMLVIYKDTERPSGIPERFSGSSSGTTVSLTISGVQAEDEADYYCQSGDSSGNHWVFGGGTRLTVL
B6: antibody 338S (antibody, V domains shown)
VH: EVQLVESGGGVVQPGRSLRLSCAASGFTFSQYGMHWVRQAPGKGLECVAVIWFDGSKKYYGDSVKGRFTISRDNSKNTLYLQMNSLRAEDTAVYFCARESLYYYDSGGHYYERGRIDYWGQGTLVTVSS
VL: DIQMTQSPSSLSASVGDRVTITCRASQDISNFLAWFQQKPGKAPKSLIYAASSLLSGVPSKFSGSGSGTDFTLTISSLQPEDFATYYCQQYNSYPPTFGQGTKLEIK
B7: antibody 315S (antibody, V domains shown)
VH: EVQLVESGGGVVQPGRSLRLSCAASGFTFKTYTMHWVRQAPGKGLEWVAVITDDGVNKKYADSVKGRFTISRDNSKNTLYLQMNSLRLEDTAVYYCARSVVVLAAYPLDYWGQGTMVTVSS
VL: DIQMTQSPSSLSASVGDRVTITCRASQTISTYLHWYQQRPGKAPKLLIYAASSLQSGVPSRVSGSGSGTDFTLTITSLQPEDFATYYCLQTYSLPLTFGGGTNVEIK
B8: antibody 377S (antibody, V domains shown)
VH: QVQLVQSGAEVKKPGSSVKVSCKASGGTFSNYAINWVRQAPGQGLEWMGRTIPFLGLTNYAENFQARVTITADKSTGTSYMQLSSLRSEDTAVYFCAKAATSGWSPFDNWGQGTLVTVSS
VL: EIVLTQSPGTLSLSPGERATLSCRASQSISSSYFGWYQQKPGQAPRLLIYGASRRAAGIPDRFSCSGSGTDFTLTISRLEPEDFGVYYCQQYGSSPTFGQGTKVEIK
B9: antibody 206L (antibody, V domains shown)
VH: EVQLVESGGGVVQPGGSLRLSCAASGFTFDDYAMHWVRQAPGKGLEWVSGISWSGGNTYYADSVKGRFTVSRENAKNSLYLQMNRLRAEDTAFYNCARTSQGGAVVFSAPNYWGQGVLVTVSS
VL: QSVLTQAPSVSGAPGQRVTISCTGSSSNIGGYYVQWYQQLPGRAPKLLIYENNKRPSGVSDRFSGSRSASSASLTITGLQSEDEADYYCQSYDSRLNGYIFGGGTRLTVL
B10: antibody 528S (antibody, V domains shown)
VH: EVQLAESGGGVVQPGRSLRLSCAASGFTFNSYGMHWVRQAPGKGLEWVAVIWDDGSKKYYADSVKGRFTISRDNSKNTLFLQMNSLRAEDTAVYYCARETIMFTFGEVIVSSRDNYYMDVWGKGTTVTVSS
VL: EIVLTQSPATLSLSPGERATLSCRASQSVSNYLAWYQQKPGQAPRLLIYDASTRAIGIPARFSGVGSGTDFTLTISSLEPEDFAVYYCQQRSNWPPLTFGGGTKVEIK
B11: antibody 310L (antibody, V domains shown)
VH: EMQLVESGGGLVQPGGSLRLSCAASGFTFDAYAMHWVRQRPGKGLEWISGIIWSGRTTYYADSVKGRFTFSRDNSKNSLYLEMNSLKPEDTALYYCAKDSWNYGVYNSLDVWGRGILVTVSS
VL: QSVLTQPPSVSGAPGQRVTISCTGSSSNVGPHYVSWYQHLPGTTPKLLIFQDNKRPSGVSDRFSGSKSASSASLTITGLQTEDEADYYCLSYDSSLNVYIFGSGTRLTVL
B12: Fab generated from 316L (Fab, V domains shown)
VH: EERLVESGGGLVQPGGSLRLSCAASGFTFGDYAMHWVRQVPGKSLEWLSGISWSGYTTYSADSVKGRFTISRDNAKNSLYLQMNRLRPEDTGLYYCVTLIGAIGIKDSLDVWGRGVLVTVSS
VL: QSVLTQPPSVSGAPGQRVTVSCSGSSSNIGAGNYVQWYQQLPGTAPKVLIYQTEKRPSGTSDRFSGSKSDTSASLTINGLQSEDEADYYCQVYDSNLNGWVFGGGTRLTVL
notes: also called 316L Fab
B13: antibody 314L (antibody, V domains shown)
VH: B12 VH
VL: EVVFTQPHSVSGSPGQMVTISCTRSSGTIDNSYVYWHQQRPGSAPTTVIYNDDQRPSGVPDRFSGSIDSSSNSASLTISGLKSEDEADYYCQSYDSSGWVFGGGTRLTVL
B14: Fab generated from 380L (Fab, V domains shown)
VH: EVQLVESGGGLVQPGGSLTLSCAASGFTFGDYVMHWVRQVPGRGLEWLSAVSWSGYTTYSADSVKGRFTISRDNAKNSLYLQMSRLGTADTGLYYCVTLIGAIGIRDSFDAWGRGVLVTVSS
VL: B12 VL with V10M, S23T, E54D, T60I, D70G, N78S, N96S
notes: also called 380L Fab

What was measured:
[1] = target: T1, mucin domain-deleted Zaire GP (GPdMuc) (Ebola (Zaire) virus (EBOV), UniProt Q05320 33-632); test: ELISA on coated GP
T1 construct: also called Zaire GPdMuc; GP(Z)dMuc

[2] = target: T2, mucin domain-deleted Sudan GP (GPdMuc) (Sudan virus (SUDV), UniProt Q7T9D9 33-632); test: ELISA on coated GP
T2 construct: also called Sudan GPdMuc; GP(S)dMuc

[3] = target: T2, mucin domain-deleted Sudan GP (GPdMuc); test: BLI competition on Sudan GPdMuc (lower table); competitor 16F6
[4] = target: T2, mucin domain-deleted Sudan GP (GPdMuc); test: BLI competition on Sudan GPdMuc (lower table); competitor 316L
[5] = target: T2, mucin domain-deleted Sudan GP (GPdMuc); test: BLI competition on Sudan GPdMuc (lower table); competitor mAb166
[6] = target: T2, mucin domain-deleted Sudan GP (GPdMuc); test: ELISA on coated GP; remark: listed apart in the source
[7] = target: T2, mucin domain-deleted Sudan GP (GPdMuc); test: BLI competition on Sudan GPdMuc (lower table); competitor 15H10
[8] = target: T2, mucin domain-deleted Sudan GP (GPdMuc); test: BLI competition on Sudan GPdMuc (upper table); competitor 15H10
[9] = target: T2, mucin domain-deleted Sudan GP (GPdMuc); test: BLI competition on Sudan GPdMuc (upper table); competitor 16F6
[10] = target: T2, mucin domain-deleted Sudan GP (GPdMuc); test: BLI competition on Sudan GPdMuc (upper table); competitor 316L
[11] = target: T2, mucin domain-deleted Sudan GP (GPdMuc); test: BLI competition on Sudan GPdMuc (upper table); competitor mAb166
[12] = target: T1, mucin domain-deleted Zaire GP (GPdMuc); test: BLI, Fab, pH 7.4
[13] = target: T2, mucin domain-deleted Sudan GP (GPdMuc); test: BLI, Fab, pH 7.4
[14] = target: T2, mucin domain-deleted Sudan GP (GPdMuc); test: BLI, Fab, pH 5.3

| Binder | EC50 [1] [µg/mL] | EC50 [2] [µg/mL] | EC50 [6] [µg/mL] | % inhibition of binding [8] [%] | % inhibition of binding [9] [%] | % inhibition of binding [10] [%] | % inhibition of binding [11] [%] | other results |
| --- | --- | --- | --- | --- | --- | --- | --- | --- |
| B1 | 0.01 | 1.74 |  |  |  |  |  |  |
| B2 | 0.01 | 0.02 |  |  |  |  |  |  |
| B3 |  |  | 0.09 |  |  |  |  | % inhibition of binding [3]: 11.1%; % inhibition of binding [4]: 7.8%; % inhibition of binding [5]: 86.6%; % inhibition of binding [7]: 7.51% |
| B4 |  |  | 0.57 | 13.4 | 10.8 | 10.3 | 87.5 |  |
| B5 | 1.5 | 0.12 |  |  |  |  |  |  |
| B6 |  |  | 0.02 | 4.35 | 3.74 | 0.2 | -6.27 |  |
| B7 |  |  | 0.01 | 6.61 | 17.9 | 0.7 | -2.64 |  |
| B8 |  |  | 0.86 | 12.1 | 9.63 | 39.4 | 83.8 |  |
| B9 | 0.01 | 0.2 |  |  |  |  |  |  |
| B10 |  |  | 0.03 | 14.7 | 13.2 | 8.13 | 82 |  |
| B11 | 0.01 | 0.34 |  |  |  |  |  |  |
| B12 |  |  |  |  |  |  |  | Kd [12]: 13300 pM; koff [12]: 0.0015 s⁻¹; kon [12]: 115000 M⁻¹ s⁻¹; Kd [13]: 372 pM; koff [13]: 5.38e-05 s⁻¹; kon [13]: 145000 M⁻¹ s⁻¹; Kd [14]: 460 pM; koff [14]: 5.26e-05 s⁻¹; kon [14]: 112000 M⁻¹ s⁻¹ |
| B13 | 2.6 | 0.31 |  |  |  |  |  |  |
| B14 |  |  |  |  |  |  |  | Kd [12]: 6640 pM; koff [12]: 0.000778 s⁻¹; kon [12]: 118000 M⁻¹ s⁻¹; Kd [13]: 567 pM; koff [13]: 9.54e-05 s⁻¹; kon [13]: 168000 M⁻¹ s⁻¹; Kd [14]: 640 pM; koff [14]: 0.000109 s⁻¹; kon [14]: 172000 M⁻¹ s⁻¹ |
